According to publication PMC10543288, “Loss of Bmp2 impairs odontogenesis via dysregulating pAkt/pErk/GCN5/Dlx3/Sp7” (Research Square, 2023):

Biological target: T1, GST full-length Sp7 (mouse, UniProt Q8VI67 1-428)
T1 construct: Sp7 (Osterix, Osx), mouse cDNA, full length; also called GST-Sp7; Osterix
Assay: co-IP; purified GST fusion proteins incubated together, immunoprecipitated with anti-Sp7, anti-Dlx3 or anti-GCN5 antibody and protein G agarose beads, IgG as negative control, detected by Western blotting
Details: both partners purified

T1 sequence (Q8VI67 whole entry): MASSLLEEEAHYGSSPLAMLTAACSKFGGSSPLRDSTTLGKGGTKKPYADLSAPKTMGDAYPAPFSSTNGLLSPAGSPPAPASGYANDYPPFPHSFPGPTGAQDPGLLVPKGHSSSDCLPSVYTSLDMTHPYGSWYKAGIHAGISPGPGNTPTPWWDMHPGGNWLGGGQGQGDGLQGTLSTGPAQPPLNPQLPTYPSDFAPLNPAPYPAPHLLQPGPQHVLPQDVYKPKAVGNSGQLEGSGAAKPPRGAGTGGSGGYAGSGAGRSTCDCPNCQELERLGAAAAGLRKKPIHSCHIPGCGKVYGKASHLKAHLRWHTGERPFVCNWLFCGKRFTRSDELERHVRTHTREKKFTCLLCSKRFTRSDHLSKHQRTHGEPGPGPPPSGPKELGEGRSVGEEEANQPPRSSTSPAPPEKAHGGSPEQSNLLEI

B1: GST full-length Dlx3 (natural protein)
chain: not shown
notes: Dlx3, mouse cDNA, full length; also called GST-Dlx3
- binding result: binds
